Data taken from US20240270825A1 (CENTIVAX, published 2024).
Numbering of substitutions follows the chain as printed.

T1: MERS Receptor Binding Domain (RBD) protein (Middle East Respiratory Syndrome (MERS) …, UniProt K9N5Q8 367-606)
T1 construct: also called Middle East Respiratory Syndrome (MERS) virus
T1 sequence: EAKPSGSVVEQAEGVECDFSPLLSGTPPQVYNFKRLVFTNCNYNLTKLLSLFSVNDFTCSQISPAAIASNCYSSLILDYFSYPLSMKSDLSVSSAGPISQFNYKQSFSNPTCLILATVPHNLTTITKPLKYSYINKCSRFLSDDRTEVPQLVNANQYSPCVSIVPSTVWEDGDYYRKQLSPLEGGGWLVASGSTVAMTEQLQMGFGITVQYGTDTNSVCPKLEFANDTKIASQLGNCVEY

B1: COVID19_P09_C09 (scFv, V domains shown)
VH: QVQLVQSGAEVKKPGSSVKVSCKASGGTFSSYAISWVRQAPGQGLEWMGIIDPSGGSTSYAQQFQGRVTITADESTSTAYMELSSLRSEDTAVYYCAGGSGISTPMDVWGQGTLVTVSS
VL: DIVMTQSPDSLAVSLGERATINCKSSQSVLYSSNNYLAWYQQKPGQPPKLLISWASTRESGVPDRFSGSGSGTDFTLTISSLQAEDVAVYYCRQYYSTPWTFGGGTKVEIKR
B2: COVID19_P22_F07 (scFv, V domains shown)
VH: QVQLVQSGAEVKKPGSSVKVSCKASGGTFSSYAISWVRQAPGQGLEWMGGIIPIFGSTASYAQKFQGRVTITADESTSTAYMELSSLRSEDTAVYYCAGEWGISTPMDVWGQGTLVTVSS
VL: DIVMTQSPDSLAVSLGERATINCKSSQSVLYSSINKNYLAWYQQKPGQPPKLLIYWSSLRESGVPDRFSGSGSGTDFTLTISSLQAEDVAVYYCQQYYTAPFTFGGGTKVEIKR
B3: COVID19_P21_E12 (scFv, V domains shown)
VH: QVQLVQSGAEVKKPGSSVKVSCKASGGTFISYAISWVRQAPGQGLEWMGGIIPTLGTYNYAQKFQGRVTITADESTSTAYMELSSLRSEDTAVYYCAGSWGISTPMDVWGQGTLVTVSS
VL: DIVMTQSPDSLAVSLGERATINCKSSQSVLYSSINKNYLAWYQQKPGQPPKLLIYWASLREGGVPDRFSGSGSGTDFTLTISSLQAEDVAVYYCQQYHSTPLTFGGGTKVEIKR
B4: COVID19_P22_E12 (scFv, V domains shown)
VH: B3 VH with I30S, S35N, T54V, G56H, Y58V, N59D, K63R, F64L, S99E
VL: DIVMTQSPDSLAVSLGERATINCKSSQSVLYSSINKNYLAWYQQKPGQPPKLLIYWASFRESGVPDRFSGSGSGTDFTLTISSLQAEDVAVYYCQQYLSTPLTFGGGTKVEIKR
B5: COVID19_P21_A12 (scFv, V domains shown)
VH: B3 VH with I30S, G50S, I51V, T54V, L55F, T57R, Y58P, S99E
VL: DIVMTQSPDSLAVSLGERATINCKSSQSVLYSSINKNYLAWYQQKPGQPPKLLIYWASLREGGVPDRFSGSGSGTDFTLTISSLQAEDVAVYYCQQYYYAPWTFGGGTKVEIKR
B6: COVID19_P21_B08 (scFv, V domains shown)
VH: B1 VH with I50V, D52N, P53T, S54G, T58V, S59T, Q63K, G99H, S100W
VL: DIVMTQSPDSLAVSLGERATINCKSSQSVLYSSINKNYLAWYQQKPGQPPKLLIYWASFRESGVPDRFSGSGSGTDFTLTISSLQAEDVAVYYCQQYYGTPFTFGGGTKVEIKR
B7: COVID19_P21_F08 (scFv, V domains shown)
VH: QVQLVQSGAEVKKPGSSVKVSCKASGGTFSTYAFNWVRQAPGQGLEWMGVINTGGGSVTYAQKFQGRVTITADESTSTAYMELSSLRSEDTAVYYCAGGSGISTPGAVWGQGTLVTVSS
VL: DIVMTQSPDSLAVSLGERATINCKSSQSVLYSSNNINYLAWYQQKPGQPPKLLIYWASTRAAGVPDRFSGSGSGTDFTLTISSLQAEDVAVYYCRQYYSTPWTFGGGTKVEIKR
B8: COVID19_P21_F11 (scFv, V domains shown)
VH: QVQLVQSGAEVKKPGSSVKVSCKASGGTFSSYAISWVRQAPGQGLEWMGIIYPGDSTARYSQKFQGRVTITADESTSTAYMELSSLRSEDTAVYYCAGGSGISTLYDVWGQGTLVTVSS
VL: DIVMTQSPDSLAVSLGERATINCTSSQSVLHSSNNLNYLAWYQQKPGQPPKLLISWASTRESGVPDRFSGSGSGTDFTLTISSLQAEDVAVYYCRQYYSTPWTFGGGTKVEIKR
B9: COVID19_P21_F04 (scFv, V domains shown)
VH: B1 VH with I50Q, D52N, G56D, S59R, Q63K
VL: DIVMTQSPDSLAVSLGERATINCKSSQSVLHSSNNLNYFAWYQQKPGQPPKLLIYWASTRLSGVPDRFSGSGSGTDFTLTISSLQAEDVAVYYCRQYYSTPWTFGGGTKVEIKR
B10: COVID19_P09_E11 (scFv, V domains shown)
VH: B8 VH with S31N, Y32H, P41Y, S56G, A58T, L105P, Y106M
VL: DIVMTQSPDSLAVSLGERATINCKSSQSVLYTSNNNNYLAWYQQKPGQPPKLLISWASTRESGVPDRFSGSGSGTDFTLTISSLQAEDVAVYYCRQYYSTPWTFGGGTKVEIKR
B11: COVID19_P22_B12 (scFv, V domains shown)
VH: B8 VH with F29L, T57E, A58T, L105P, Y106R, D107S
VL: DIVMTQSPDSLAVSLGERATINCKSSRILSYSPDNKNYLAWYQQKPGQPPKLLIYWASTRESGVPDRFSGSGSGTDFTLTISSLQAEDVAVYYCQQSYITPYTFGGGTKVEIKR

Assays:
[1] = target: T2, SARS-CoV-1 Receptor Binding Domain (RBD) protein (SARS-CoV-1, UniProt P59594 306-527); test: SPR Carterra LSA, scFv captured via anti-V5
T2 construct: also called SARS1

[2] = target: T1, MERS Receptor Binding Domain (RBD) …; test: SPR Carterra LSA, scFv captured via anti-V5
[3] = target: SARS-CoV-2 Receptor Binding Domain (RBD) protein (SARS-CoV-2, UniProt P0DTC2 319-541); test: SPR Carterra LSA, scFv captured via anti-V5, 1:1 fit

Binder | binding result [1] | binding result [2] | Kd [3] [nM] | koff [3] [s⁻¹]
B1 | no binding (tested: 300 nM) | no binding (tested: 300 nM) | – | –
B2 | no binding (tested: 300 nM) | no binding (tested: 300 nM) | – | –
B3 | no binding (tested: 300 nM) | no binding (tested: 300 nM) | – | –
B4 | no binding (tested: 300 nM) | no binding (tested: 300 nM) | – | –
B5 | no binding (tested: 300 nM) | no binding (tested: 300 nM) | – | –
B6 | no binding (tested: 300 nM) | no binding (tested: 300 nM) | – | –
B7 | no binding (tested: 300 nM) | no binding (tested: 300 nM) | – | –
B8 | no binding (tested: 300 nM) | no binding (tested: 300 nM) | 1.1 | 5.7e-05
B9 | no binding (tested: 300 nM) | no binding (tested: 300 nM) | – | –
B10 | no binding (tested: 300 nM) | no binding (tested: 300 nM) | – | –
B11 | no binding (tested: 300 nM) | no binding (tested: 300 nM) | – | –
